Km and kcat/Km data for two proteins are collected here from paper PMC5433297, “Isoflavone Malonyltransferases GmIMaT1 and GmIMaT3 Differently Modify Isoflavone Glucosides in Soybean (Glycine max) under Various Stresses” (Frontiers in Plant Science, 2017).

Common to all, as to assay: HPLC malonyltransferase assay, Lineweaver-Burk
What all share (assay type): biochemical, Glycine max

Substrate in data set [1]: CC(C)(COP(=O)(O)OP(=O)(O)OC[C@H]1O[C@@H](n2cnc3c(N)ncnc32)[C@H](O)[C@@H]1OP(=O)(O)O)[C@@H](O)C(=O)NCCC(=O)NCCSC(=O)CC(=O)O
To be noted: 60 μM genistin as acceptor, 20 mM potassium phosphate pH 7.2, 30°C. The text has this:
(§1) HPLC malonyltransferase assay, Lineweaver-Burk on GmIMaT3

Substrate in data set [2]: COc1cc2c(=O)c(-c3ccc(O)cc3)coc2cc1O[C@@H]1O[C@H](CO)[C@@H](O)[C@H](O)[C@H]1O
The note with it: 40 μM malonyl-CoA, 20 mM potassium phosphate pH 7.2, 30°C.
Text: as §1

Substrate in data set [3]: O=c1c(-c2ccc(O)cc2)coc2cc(O[C@@H]3O[C@H](CO)[C@@H](O)[C@H](O)[C@H]3O)ccc12
The note with it: 40 μM malonyl-CoA, 20 mM potassium phosphate pH 7.2, 30°C.
Text: as §1

Substrate in data set [4]: O=c1c(-c2ccc(O)cc2)coc2cc(O[C@@H]3O[C@H](CO)[C@@H](O)[C@H](O)[C@H]3O)cc(O)c12
The note with it: 40 μM malonyl-CoA, 20 mM potassium phosphate pH 7.2, 30°C.
Text: as §1

Substrate in data set [5]: CC(C)(COP(=O)(O)OP(=O)(O)OC[C@H]1O[C@@H](n2cnc3c(N)ncnc32)[C@H](O)[C@@H]1OP(=O)(O)O)[C@@H](O)C(=O)NCCC(=O)NCCSC(=O)CC(=O)O
The note with it: 60 μM genistin as acceptor, 20 mM potassium phosphate pH 7.2, 30°C. The text has this:
(§2) HPLC malonyltransferase assay, Lineweaver-Burk on GmIMaT1
The source holds these as a separate data set.

Substrate in data set [6]: COc1cc2c(=O)c(-c3ccc(O)cc3)coc2cc1O[C@@H]1O[C@H](CO)[C@@H](O)[C@H](O)[C@H]1O
To be noted: 40 μM malonyl-CoA, 20 mM potassium phosphate pH 7.2, 30°C.
Text: as §2
This is another data set of the same source.

Substrate in data set [7]: O=c1c(-c2ccc(O)cc2)coc2cc(O[C@@H]3O[C@H](CO)[C@@H](O)[C@H](O)[C@H]3O)ccc12
To be noted: 40 μM malonyl-CoA, 20 mM potassium phosphate pH 7.2, 30°C.
Text: as §2
The source holds these as a separate data set.

Substrate in data set [8]: O=c1c(-c2ccc(O)cc2)coc2cc(O[C@@H]3O[C@H](CO)[C@@H](O)[C@H](O)[C@H]3O)cc(O)c12
The note with it: 40 μM malonyl-CoA, 20 mM potassium phosphate pH 7.2, 30°C.
Text: as §2
The source holds these as a separate data set.

What is called Km is the concentration of substrate that gives half-maximal velocity. In general, kcat/Km refers to the turnover number divided by the Michaelis constant.

B1: GmIMaT3 (Glycine max) (protein)
chain: MAETPTLRIHEVCPISPPQETPSTTIPFTFFDVLWLRLPPVERLFFYSFPNPTTTSSFFDTTILPNLKHSLSLTLHHFPPLAGTITWPLHTPLPLIAYTPGNSIPFRIAESNADFNTLSSNLSEVNNHRRNLIPHLPTSHEEASVLALQLTHFPNQGYSIGITSHHAALDGKSSTLFMKSWAHICSYLNTSPEEPLLFSLPKHLTPSFDRSVIRDPLGIGEIYAKSWTSFGGATNDRSLNVWDTLGGNQTDLVKGLFELTPLDIKKLKKLAESKFVVGDNKKKVRVTSFTVTCAYLLSCAVKAEQPNCERVHFVFNVDCRARLDPPIPETYFGNCVVALLASAKREELLGEEAFFKSVIGISEELNGLEGDVLNGADKWIPKIQSVVSETPRLFSVAGSPRFEVYGIDFGWGRPEKVDVASVNKTGAFSLSESRDHSGGIQIGLALTKNQMEAFSRVFAQGLESLES
notes: full-length ORF (467 residues), His-tagged fusion (pDEST17), E. coli BL21 (DE3), nickel resin, partially purified; cDNA from soybean roots; allele with three amino acid differences from GmMT7 and GmIF7MaT
Regarding B1, the Michaelis-Menten constant (Km) in data set [1] is 25.59 ± 2.2 µM; in data set [2], 12.94 ± 1.3 µM; in data set [3], 30.12 ± 2.6 µM; in data set [4], 26.67 ± 0.86 µM. Besides, the kcat/Km was 750000 ± 120000 M⁻¹ s⁻¹ in data set [1], 5.61e+06 ± 1.25e+06 M⁻¹ s⁻¹ in data set [2], 1.15e+06 ± 120000 M⁻¹ s⁻¹ in data set [3] and 1.54e+06 ± 140000 M⁻¹ s⁻¹ in data set [4].

B2: GmIMaT1 (Glycine max) (protein)
chain: MASHNIKIHDHLRVSPPSATEISLSLTFFDLFWLRFHPVERIFFYTLPTPHSNPSIFYSKLVPKLKTSLSRTLQHFPPLAGNVVWPDNTPNPTVQYTPGDSVSLVVAESEADFNHVLDNSPHKASELRCLVPHLDSSDSHASVVSFQITLFPNRGFSIGISTHHAVLDGKSSTIFIKAWASLCKTYNDDESSESSSPSLAPELKPFFDRTAIKDPSEIGLNFTVNWTEILTKFFPNENSDGRCLKLLPFPPRLEDHVRASFALTGADLEKLRKRVLSKWDIVDRGAESEPPRLSSFVLTCAYALACIAKAIHGVEKEKEKFAFAFTVDCRARLEPPIHDNYFGNCVWGHVVDAEPLDFIKEEAFAIVAKSIHSKIKMILDEGIFHGMESAFSRYESLGKDGVEIMGIAGSNRFGVYGTDFGWGKPAKVEIASVDRALTIGFAESKDGNDGVQVGLVLKKHVMDLFCTLFRQGMLDD
notes: full-length ORF (476 residues), His-tagged fusion (pDEST17), E. coli BL21 (DE3), nickel resin, partially purified; cDNA from soybean roots
Take B2: the Michaelis constant (Km) in data set [5] turned out to be 18.30 ± 1.2 µM; in data set [6], 13.11 ± 0.92 µM; in data set [7] it was 36.28 ± 3.2 µM; in data set [8], 23.04 ± 1.5 µM. For the same protein, the kcat/Km stood at 440000 ± 70000 M⁻¹ s⁻¹ in data set [5], 5.21e+06 ± 140000 M⁻¹ s⁻¹ in data set [6], 820000 ± 10000 M⁻¹ s⁻¹ in data set [7] and 2.47e+06 ± 100000 M⁻¹ s⁻¹ in data set [8].
